From US20160058880A1 (LIFE SCIENCES RESEARCH PARTNERS VZW, published 2016)
Numbered stars: 1 amine (or outer) side, 2 acyl side, 3 side chain; on linkers, the order of the positions; unused ones are H or OH. Square brackets hold non-standard residues; d marks the D form. * marks the point of attachment. Doxorubicin(3'-N) = COc1cccc2c1C(=O)c1c(O)c3c(c(O)c1C2=O)C[C@@](O)(C(=O)CO)C[C@@H]3O[C@H]1C[C@H](N*)[C@H](O)[C@H](C)O1; Phosphonoacetyl = O=C(CP(=O)(O)O)*; Suc = O=C(CCC(=O)[*:2])[*:1]; βAla = NCCC(=O)O

Assays:
[1] = target: CD10 (recombinant human neprilysin, R&D systems, Ref 1182-ZN) (human, UniProt P08473 53-750); assay: cell-based or functional assay
[2] = target: TOP (recombinant human thimet oligopeptidase, R&D systems, Ref 3439-ZN) (human, UniProt P52888 1-689, limits assumed); assay: cell-based or functional assay
Sequence of TOP (recombinant human thimet oligopeptidase, R&D systems, Ref 3439-ZN) (P52888 whole entry): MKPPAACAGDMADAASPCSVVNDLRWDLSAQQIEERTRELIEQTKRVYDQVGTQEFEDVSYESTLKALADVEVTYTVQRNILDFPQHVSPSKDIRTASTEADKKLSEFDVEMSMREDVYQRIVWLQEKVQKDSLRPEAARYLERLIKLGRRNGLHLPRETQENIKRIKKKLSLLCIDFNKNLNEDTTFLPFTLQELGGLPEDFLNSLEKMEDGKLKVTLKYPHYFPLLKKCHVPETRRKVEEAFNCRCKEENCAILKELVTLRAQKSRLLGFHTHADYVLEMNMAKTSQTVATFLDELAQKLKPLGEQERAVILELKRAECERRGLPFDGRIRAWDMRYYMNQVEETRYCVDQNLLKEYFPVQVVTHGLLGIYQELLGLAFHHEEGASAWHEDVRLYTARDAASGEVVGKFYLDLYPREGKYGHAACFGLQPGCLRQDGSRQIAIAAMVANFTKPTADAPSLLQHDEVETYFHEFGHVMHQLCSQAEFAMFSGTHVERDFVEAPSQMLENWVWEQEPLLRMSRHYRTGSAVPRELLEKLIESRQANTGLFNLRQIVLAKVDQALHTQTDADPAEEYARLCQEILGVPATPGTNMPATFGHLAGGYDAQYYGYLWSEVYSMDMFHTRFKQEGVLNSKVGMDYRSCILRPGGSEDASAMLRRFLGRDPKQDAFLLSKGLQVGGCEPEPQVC

Sequence of CD10 (recombinant human neprilysin, R&D systems, Ref 1182-ZN) (P08473 53-750 limits assumed): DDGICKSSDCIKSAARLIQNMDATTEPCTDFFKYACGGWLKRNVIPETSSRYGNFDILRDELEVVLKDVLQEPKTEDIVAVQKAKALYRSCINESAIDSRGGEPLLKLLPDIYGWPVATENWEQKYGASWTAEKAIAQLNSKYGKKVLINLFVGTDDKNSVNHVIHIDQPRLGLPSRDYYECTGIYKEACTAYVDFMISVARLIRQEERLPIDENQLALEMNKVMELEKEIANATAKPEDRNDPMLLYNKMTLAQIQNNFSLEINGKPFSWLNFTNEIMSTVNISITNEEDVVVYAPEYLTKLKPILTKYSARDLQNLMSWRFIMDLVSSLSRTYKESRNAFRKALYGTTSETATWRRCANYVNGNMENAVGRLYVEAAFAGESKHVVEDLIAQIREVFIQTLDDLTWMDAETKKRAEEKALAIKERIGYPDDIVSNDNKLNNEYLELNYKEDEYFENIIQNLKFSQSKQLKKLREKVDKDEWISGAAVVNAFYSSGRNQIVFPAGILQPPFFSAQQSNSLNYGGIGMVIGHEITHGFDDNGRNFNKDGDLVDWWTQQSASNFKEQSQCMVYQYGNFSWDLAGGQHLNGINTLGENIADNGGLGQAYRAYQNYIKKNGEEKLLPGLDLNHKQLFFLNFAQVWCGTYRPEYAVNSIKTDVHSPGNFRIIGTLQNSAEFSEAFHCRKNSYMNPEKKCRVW

Row | Binder | % Metabolites released after 3 h with CD10 10 nM [1] [%] | % Metabolites released after 3 h with TOP 5 nM (GP-Dox) [2] [%] | % Metabolites released after 3 h with TOP 5 nM [2] [%]
1 | Phosphonoacetyl-ALPF-{Doxorubicin(3'-N)} (SMILES COc1cccc2c1C(=O)c1c(O)c3c(c(O)c1C2=O)C[C@@](O)(C(=O)CO)C[C@@H]3O[C@H]1C[C@H](NC(=O)[C@H](Cc2ccccc2)NC(=O)[C@@H]2CCCN2C(=O)[C@H](CC(C)C)NC(=O)[C@H](C)NC(=O)CP(=O)(O)O)[C@H](O)[C@H](C)O1) [PhAc-ALPF-doxorubicin] | 0 |  | 
2 | Phosphonoacetyl-ALGP-{Doxorubicin(3'-N)} (SMILES COc1cccc2c1C(=O)c1c(O)c3c(c(O)c1C2=O)C[C@@](O)(C(=O)CO)C[C@@H]3O[C@H]1C[C@H](NC(=O)[C@@H]2CCCN2C(=O)CNC(=O)[C@H](CC(C)C)NC(=O)[C@H](C)NC(=O)CP(=O)(O)O)[C@H](O)[C@H](C)O1) [PhAc-ALGP-doxorubicin] |  | 72 | 
3 | Phosphonoacetyl-DLGP-{Doxorubicin(3'-N)} (SMILES COc1cccc2c1C(=O)c1c(O)c3c(c(O)c1C2=O)C[C@@](O)(C(=O)CO)C[C@@H]3O[C@H]1C[C@H](NC(=O)[C@@H]2CCCN2C(=O)CNC(=O)[C@H](CC(C)C)NC(=O)[C@H](CC(=O)O)NC(=O)CP(=O)(O)O)[C@H](O)[C@H](C)O1) [PhAc-DLGP-doxorubicin] | 0 |  | 0
4 | Phosphonoacetyl-AIGP-{Doxorubicin(3'-N)} (SMILES CC[C@H](C)[C@H](NC(=O)[C@H](C)NC(=O)CP(=O)(O)O)C(=O)NCC(=O)N1CCC[C@H]1C(=O)N[C@H]1C[C@H](O[C@H]2C[C@](O)(C(=O)CO)Cc3c(O)c4c(c(O)c32)C(=O)c2c(OC)cccc2C4=O)O[C@@H](C)[C@H]1O) [PhAc-AIGP-doxorubicin] |  | < 5 | 
5 | Phosphonoacetyl-KLGP-{Doxorubicin(3'-N)} (SMILES COc1cccc2c1C(=O)c1c(O)c3c(c(O)c1C2=O)C[C@@](O)(C(=O)CO)C[C@@H]3O[C@H]1C[C@H](NC(=O)[C@@H]2CCCN2C(=O)CNC(=O)[C@H](CC(C)C)NC(=O)[C@H](CCCCN)NC(=O)CP(=O)(O)O)[C@H](O)[C@H](C)O1) [PhAc-KLGP-doxorubicin] |  | 31 | 
6 | Phosphonoacetyl-GPGP-{Doxorubicin(3'-N)} (SMILES COc1cccc2c1C(=O)c1c(O)c3c(c(O)c1C2=O)C[C@@](O)(C(=O)CO)C[C@@H]3O[C@H]1C[C@H](NC(=O)[C@@H]2CCCN2C(=O)CNC(=O)[C@@H]2CCCN2C(=O)CNC(=O)CP(=O)(O)O)[C@H](O)[C@H](C)O1) [PhAc-GPGP-doxorubicin] | 0 |  | 0
7 | Phosphonoacetyl-TSGP-{Doxorubicin(3'-N)} (SMILES COc1cccc2c1C(=O)c1c(O)c3c(c(O)c1C2=O)C[C@@](O)(C(=O)CO)C[C@@H]3O[C@H]1C[C@H](NC(=O)[C@@H]2CCCN2C(=O)CNC(=O)[C@H](CO)NC(=O)[C@@H](NC(=O)CP(=O)(O)O)[C@@H](C)O)[C@H](O)[C@H](C)O1) [PhAc-TSGP-doxorubicin] | 0 | 38 | 
8 | Suc-[βAla]LPF-doxorubicin [Succinyl-βALPF-doxorubicin] |  |  | 0
